The text below walks through data of US20190328788A1 (GENAGON THERAPEUTICS, published 2019).

Ends that are not written are not given here.

What all share (experiment): ELISA, peptide on streptavidin plate, ligand 100 ng/ml
(In general: In an ELISA, binding on a coated surface is turned into a signal by an enzyme label.)

The target in assay [1] is T1, Growth and Differentiation Factor 15 (GDF15) (UniProt Q99988 197-308, limits assumed).
T1 construct: also called MIC-1; MIC1
T1 sequence (looked up): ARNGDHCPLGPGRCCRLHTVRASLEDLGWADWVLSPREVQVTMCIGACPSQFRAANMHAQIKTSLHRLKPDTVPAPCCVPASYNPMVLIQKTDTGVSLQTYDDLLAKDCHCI
The method, then:
(§1) Biotinylated synthetic peptide fragments from CLPTM1 (JPT peptides, Germany) were immobilized in a streptavidin 96 well plate (#15500 Pierce) at 1 μM in PBS over night at +4° C. Plate was then washed 4 times in 300 μl PBS with 0.05% tween-20 (wash buffer). The plate was then blocked with PBS 1% BSA and 0.05% tween-20 (blocking buffer) for 1.5 hours at room temperature, then washed 4 times in wash buffer. Ligands GDF15, TGFb1, TGFb2 and TGFb3 (Abcam) were added in blocking buffer at 100 ng/ml and incubated at room temperature for 2 hours. The plate was then washed 8 times in 300 μL wash buffer with 2× NaCl. An anti-GDF15 antibody was added at 1 μg/ml (R&D Systems, goat polyclonal) or a pan-specific anti-TGFb antibody (R&D Systems, mouse 1 D11), and the plate incubated in blocking buffer for 1 hour at room temperature followed by washing with 4×300 μl wash buffer. HAF017 anti-goat-HRP antibody (to detect the anti-GDF15 antibody) or Santa Cruz sc-2005 Goat anti-mouse-HRP (to detect the pan-specific anti-TGFb antibody) was added and the plate incubated for 1 hour in blocking buffer followed by a wash. TMB substrate was added and stopped after 15 minutes with H₂SO₄. OD 450-620 was measured in an ELISA reader.

The target in assay [2] is T2, transforming growth factor-beta 1 (TGF-β1) (UniProt P01137 279-390).
T2 construct: also called TGFb1; TGFB1
On the procedure: as §1

The target in assay [3] is T3, transforming growth factor-beta 2 (TGF-β2) (UniProt P61812 303-414).
T3 construct: also called TGFb2; TGFB2
T3 sequence (looked up): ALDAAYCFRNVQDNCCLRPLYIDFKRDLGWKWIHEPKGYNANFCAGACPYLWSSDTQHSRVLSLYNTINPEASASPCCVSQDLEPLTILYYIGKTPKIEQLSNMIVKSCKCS
The method, then: as §1

The target of assay [4] is T4, transforming growth factor-beta 3 (TGF-β3) (UniProt P10600 301-412).
T4 construct: also called TGFb3; TGFB3
T4 sequence (looked up): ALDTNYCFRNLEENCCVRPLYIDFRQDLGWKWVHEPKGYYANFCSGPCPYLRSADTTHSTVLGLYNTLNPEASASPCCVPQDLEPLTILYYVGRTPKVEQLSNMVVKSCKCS
On the procedure:
as §1

T2 sequence (P01137 279-390 limits assumed): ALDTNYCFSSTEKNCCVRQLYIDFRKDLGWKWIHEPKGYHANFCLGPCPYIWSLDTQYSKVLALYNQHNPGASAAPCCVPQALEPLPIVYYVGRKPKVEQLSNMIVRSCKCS

B1: CLPTM1 peptide fragment of SEQ ID NO: 20 (peptide)
peptide: ITINIVDDHTPWVKGSVPPPG
modifications: also: biotinylated, site not given here
Turning to B1, the “ELISA OD450” value in assay [1] came out at 0.098 OD450; in assay [2], 0.011 OD450; in assay [3], 0.005 OD450; in assay [4] it was 0.068 OD450.

B2: CLPTM1 peptide fragment of SEQ ID NO: 15 (peptide)
peptide: SDGCYEHFAELDIPQSVQQNG
modifications: also: biotinylated, site not given here
Consider B2, for which the “ELISA OD450” value is 0.024 OD450 in assay [1], 0.006 OD450 in assay [2], -0.003 OD450 in assay [3] and 0.004 OD450 in assay [4].

B3: CLPTM1 peptide fragment of SEQ ID NO: 16 (peptide)
peptide: GSIYIHVYFTKSGFHPDPRQG
modifications: also: biotinylated, site not given here
On to B3, for which the “ELISA OD450” value in assay [1] amounted to 0.149 OD450; in assay [2], 0.122 OD450; in assay [3] it was 0.107 OD450; in assay [4], 0.02 OD450.

B4: CLPTM1 peptide fragment of SEQ ID NO: 8 (peptide)
peptide: AAAQEADGARSAVVAAGGGSG
modifications: also: biotinylated, site not given here
On to B4, for which the “ELISA OD450” value is 0.022 OD450 in assay [1], 0.012 OD450 in assay [2], 0.01 OD450 in assay [3] and 0.015 OD450 in assay [4].

B5: CLPTM1 peptide fragment of SEQ ID NO: 14 (peptide)
peptide: SALFWEQHDLVYGDWTSGENG
modifications: also: biotinylated, site not given here
Turning to B5, the “ELISA OD450” value stood at 0.034 OD450 in assay [1], 0.022 OD450 in assay [2], 0.002 OD450 in assay [3] and 0.02 OD450 in assay [4].

B6: CLPTM1 peptide fragment of SEQ ID NO: 18 (peptide)
peptide: RRRFQKTKNLLTGETEADPEG
modifications: also: biotinylated, site not given here
In the case of B6, the “ELISA OD450” value in assay [1] was 0.021 OD450; in assay [2], 0.002 OD450; in assay [3], 0.002 OD450; in assay [4], 0.004 OD450.

B7: CLPTM1 peptide fragment of SEQ ID NO: 35 (peptide)
peptide: NAWQVIKGVLFRIFIIWAISSWFRRGPAPQDQAGPGGA
modifications: also: biotinylated, site not given here
notes: also called peptide 28; GT4
As for B7, the “ELISA OD450” value in assay [1] was found to be 0.029 OD450; in assay [2] it was 0.098 OD450; in assay [3] it was 0.031 OD450; in assay [4], 0.027 OD450.

B8: CLPTM1 peptide fragment of SEQ ID NO: 13 (peptide)
peptide: LMNLHVYISEHEHFTDFNATG
modifications: also: biotinylated, site not given here
On to B8, for which the “ELISA OD450” value stood at 0.058 OD450 in assay [1], 0.02 OD450 in assay [2], 0.005 OD450 in assay [3] and 0.014 OD450 in assay [4].

B9: CLPTM1 peptide fragment of SEQ ID NO: 39 (peptide)
peptide: PLDQYVKFDAVSGDYYPIIYFNDYWNLQKDYYPINESLA
modifications: also: biotinylated, site not given here
notes: also called peptide 32; GT8
On to B9, for which the “ELISA OD450” value came out at 0.137 OD450 in assay [1], 1.86 OD450 in assay [2], 0.91 OD450 in assay [3] and 0.074 OD450 in assay [4].

B10: CLPTM1 peptide fragment of SEQ ID NO: 11 (peptide)
peptide: RIFIIWAISSWFRRGPAPQDG
modifications: also: biotinylated, site not given here
Regarding B10, the “ELISA OD450” value was 0.026 OD450 in assay [1], 0.008 OD450 in assay [2], -0.003 OD450 in assay [3] and 0.003 OD450 in assay [4].

B11: CLPTM1 peptide fragment of SEQ ID NO: 19 (peptide)
peptide: MIKRAEDYGPVEVISHWHPNG
modifications: also: biotinylated, site not given here
Take B11: the “ELISA OD450” value was 0.028 OD450 in assay [1], 0.006 OD450 in assay [2], 0.002 OD450 in assay [3] and 0.004 OD450 in assay [4].

B12: CLPTM1 peptide fragment of SEQ ID NO: 9 (peptide)
peptide: SGQVTSNGSIGRDPPAETQPG
modifications: also: biotinylated, site not given here
For the molecule B12, the “ELISA OD450” value in assay [1] was 0.009 OD450; in assay [2], 0.002 OD450; in assay [3] it was 0.001 OD450; in assay [4] it was 0.001 OD450.

B13: CLPTM1 peptide fragment of SEQ ID NO: 21 (peptide)
peptide: LDQYVKFDAVSGDYYPIIYFG
modifications: also: biotinylated, site not given here
notes: also called peptide 14
Take B13: the “ELISA OD450” value in assay [1] worked out at 0.14 OD450; in assay [2], 0.152 OD450; in assay [3], 0.019 OD450; in assay [4], 0.065 OD450.

B14: CLPTM1 peptide fragment of SEQ ID NO: 37 (peptide)
peptide: TKSGFHPDPRQKALYRRLATVHMSRMINKYKRRRFQKTKN
modifications: also: biotinylated, site not given here
notes: also called peptide 30; GT6
Consider B14, for which the “ELISA OD450” value in assay [1] worked out at 0.209 OD450; in assay [2], 0.389 OD450; in assay [3], 0.483 OD450; in assay [4], 0.613 OD450.

B15: CLPTM1 peptide fragment of SEQ ID NO: 36 (peptide)
peptide: DTLMNLHVYISEHEHFTDFNATSALFWEQHDLVYGDWTSG
modifications: also: biotinylated, site not given here
notes: also called peptide 29; GT5
As to B15, the “ELISA OD450” value in assay [1] was 0.174 OD450; in assay [2], 1.64 OD450; in assay [3], 0.838 OD450; in assay [4] it was 0.095 OD450.

B16: CLPTM1 peptide fragment of SEQ ID NO: 32 (peptide)
peptide: SGDYYPIIYFNDYWNLQKDYYPINESLASLPLRVSFCPLS
modifications: also: biotinylated, site not given here
notes: also called peptide 25; GT1
Consider B16, for which the “ELISA OD450” value in assay [1] amounted to 0.779 OD450; in assay [2], 2.1 OD450; in assay [3] it was 1.63 OD450; in assay [4], 0.3 OD450.

B17: CLPTM1 peptide fragment of SEQ ID NO: 40 (peptide)
peptide: SGDYYPIIYFNDYWNLQKDYYPINESLA
modifications: also: biotinylated, site not given here
notes: also called peptide 33; GT9
Consider B17, for which the “ELISA OD450” value in assay [1] was determined as 0.518 OD450; in assay [2], 2.81 OD450; in assay [3], 2.09 OD450; in assay [4], 0.399 OD450.

B18: CLPTM1 peptide fragment of SEQ ID NO: 38 (peptide)
peptide: VSGDYYPIIYFNDYWNLQKDYYPINESLASLPLRVSFC
modifications: also: biotinylated, site not given here
notes: also called peptide 31; GT7
For B18, the “ELISA OD450” value in assay [1] is 0.383 OD450; in assay [2] it was 1.01 OD450; in assay [3] it was 0.717 OD450; in assay [4], 0.091 OD450.

B19: CLPTM1 peptide fragment of SEQ ID NO: 12 (peptide)
peptide: QAGPGGAPRVASRNLFPKDTG
modifications: also: biotinylated, site not given here
Consider B19, for which the “ELISA OD450” value in assay [1] was 0.034 OD450; in assay [2], 0.003 OD450; in assay [3] it was -0.006 OD450; in assay [4], 0.004 OD450.

B20: CLPTM1 peptide fragment of SEQ ID NO: 33 (peptide)
peptide: LWRWQLYAAQSTKSPWNFLGDELYEQSDEEQDSVKVALLETNP
modifications: also: biotinylated, site not given here
notes: also called peptide 26; GT2
Turning to B20, the “ELISA OD450” value in assay [1] came to 0.021 OD450; in assay [2], 0.177 OD450; in assay [3], 0.009 OD450; in assay [4], 0.007 OD450.

B21: CLPTM1 peptide fragment of SEQ ID NO: 10 (peptide)
peptide: QNPPAQPAPNAWQVIKGVLFG
modifications: also: biotinylated, site not given here
B21: the “ELISA OD450” value was determined as 0.042 OD450 in assay [1], 0.026 OD450 in assay [2], 0.013 OD450 in assay [3] and 0.006 OD450 in assay [4].

B22: CLPTM1 peptide fragment of SEQ ID NO: 34 (peptide)
peptide: ARSAVVAAGGGSSGQVTSNGSIGRDPPAETQPQNPPAQPA
modifications: also: biotinylated, site not given here
notes: also called peptide 27; GT3
For the molecule B22, the “ELISA OD450” value in assay [1] was 0.016 OD450; in assay [2] it was 0.058 OD450; in assay [3], 0.123 OD450; in assay [4], 0.003 OD450.

B23: CLPTM1 peptide fragment of SEQ ID NO: 17 (peptide)
peptide: KALYRRLATVHMSRMINKYKG
modifications: also: biotinylated, site not given here
notes: also called peptide 10
Consider B23, for which the “ELISA OD450” value stood at 0.197 OD450 in assay [1], 0.913 OD450 in assay [2], 1.01 OD450 in assay [3] and 0.046 OD450 in assay [4].
